Common to all, as to settings: remark: other sources report otherwise
In test [1] the target is T1, dCENP-A-GFP-LacI (Drosophila melanogaster), Q9V6Q2.
T1 chain: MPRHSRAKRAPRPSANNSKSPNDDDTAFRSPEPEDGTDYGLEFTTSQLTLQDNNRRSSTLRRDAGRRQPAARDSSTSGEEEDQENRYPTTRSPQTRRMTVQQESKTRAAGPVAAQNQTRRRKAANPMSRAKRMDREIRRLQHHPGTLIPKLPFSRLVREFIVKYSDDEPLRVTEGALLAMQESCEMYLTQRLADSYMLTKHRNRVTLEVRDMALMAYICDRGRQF
Kind of test: LacI/LacO tethering and recruitment assay (immunofluorescence); bait fused to GFP-LacI tethered to chromosomal LacO arrays in human U2OS cells; HA- or V5-tagged prey transiently co-expressed; IF 48 h after transfection, prey intensity at the LacO spot or % of cells; no third Drosophila centromere protein co-expressed.

For test [2], the target named is T1, dCENP-A-GFP-LacI (Drosophila …). Kind of test: LacI/LacO tethering and recruitment assay (immunofluorescence); as a1, but with a third Drosophila centromere protein (CAL1-V5, dCENP-A-HA or -V5, or HA-dCENP-C) co-expressed, as named in the row.
Test [3] addresses T2, GFP-LacI-dCENP-C (Drosophila melanogaster), Q9VHP9.
T2 chain: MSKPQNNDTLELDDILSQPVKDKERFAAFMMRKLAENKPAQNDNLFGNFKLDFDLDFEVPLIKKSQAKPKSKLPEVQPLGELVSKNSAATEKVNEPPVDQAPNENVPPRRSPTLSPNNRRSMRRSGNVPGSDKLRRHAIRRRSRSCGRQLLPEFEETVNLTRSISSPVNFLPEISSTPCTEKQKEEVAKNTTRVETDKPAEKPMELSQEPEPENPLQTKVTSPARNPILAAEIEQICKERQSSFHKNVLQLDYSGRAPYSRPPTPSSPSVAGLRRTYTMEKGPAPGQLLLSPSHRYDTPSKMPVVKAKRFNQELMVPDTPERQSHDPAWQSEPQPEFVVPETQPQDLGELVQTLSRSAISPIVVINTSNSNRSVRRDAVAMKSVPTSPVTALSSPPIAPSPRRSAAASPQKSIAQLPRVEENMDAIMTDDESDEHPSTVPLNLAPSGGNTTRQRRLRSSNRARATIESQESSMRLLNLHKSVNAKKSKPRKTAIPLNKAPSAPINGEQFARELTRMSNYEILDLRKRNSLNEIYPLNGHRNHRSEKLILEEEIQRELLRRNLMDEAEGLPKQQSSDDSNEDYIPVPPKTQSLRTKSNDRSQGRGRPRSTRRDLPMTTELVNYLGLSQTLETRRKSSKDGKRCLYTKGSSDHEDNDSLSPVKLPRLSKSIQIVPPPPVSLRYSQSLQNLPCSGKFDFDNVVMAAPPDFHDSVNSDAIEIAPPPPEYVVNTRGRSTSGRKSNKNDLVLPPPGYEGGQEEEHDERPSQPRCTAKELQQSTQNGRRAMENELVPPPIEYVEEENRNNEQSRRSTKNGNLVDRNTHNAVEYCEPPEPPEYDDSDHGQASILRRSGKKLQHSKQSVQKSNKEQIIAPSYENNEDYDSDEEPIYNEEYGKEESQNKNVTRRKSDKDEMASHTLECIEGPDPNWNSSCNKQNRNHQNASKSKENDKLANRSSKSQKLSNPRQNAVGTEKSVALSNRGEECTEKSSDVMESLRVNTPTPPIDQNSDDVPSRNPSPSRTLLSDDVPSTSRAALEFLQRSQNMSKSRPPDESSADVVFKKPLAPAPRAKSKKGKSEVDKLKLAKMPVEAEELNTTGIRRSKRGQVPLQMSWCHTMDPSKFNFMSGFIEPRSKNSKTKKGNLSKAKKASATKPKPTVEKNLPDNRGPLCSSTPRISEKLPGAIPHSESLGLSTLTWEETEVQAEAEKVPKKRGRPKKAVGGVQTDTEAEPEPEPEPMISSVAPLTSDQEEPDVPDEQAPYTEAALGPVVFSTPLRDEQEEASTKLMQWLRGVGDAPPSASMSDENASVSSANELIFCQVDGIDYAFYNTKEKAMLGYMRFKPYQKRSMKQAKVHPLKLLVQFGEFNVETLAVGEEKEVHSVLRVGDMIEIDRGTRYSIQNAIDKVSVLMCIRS
Kind of test: LacI/LacO tethering and recruitment assay (immunofluorescence); bait fused to GFP-LacI tethered to chromosomal LacO arrays in human U2OS cells; HA- or V5-tagged prey transiently co-expressed; IF 48 h after transfection, prey intensity at the LacO spot or % of cells; no third Drosophila centromere protein co-expressed.

Test [4] deals with T2, GFP-LacI-dCENP-C (Drosophila …). In words: LacI/LacO tethering and recruitment assay (immunofluorescence); as a1, but with a third Drosophila centromere protein (CAL1-V5, dCENP-A-HA or -V5, or HA-dCENP-C) co-expressed, as named in the row.
For test [5], the target named is (dCENP-A/dH4) dimer (Drosophila melanogaster), Q9V6Q2. In words: SEC-MALS; recombinant proteins; Superdex 200 10/300 Increase GL, 50 mM HEPES pH 8.0, 150 or 300 mM NaCl, 1 mM TCEP, 22°C, 100 μl of 1-5 mg/ml. For orientation: SEC sorts molecules by how far they enter the pores of the column.

B1: HA-dCENP-C, Q9VHP9 1-1411 (natural protein)
chain: MSKPQNNDTLELDDILSQPVKDKERFAAFMMRKLAENKPAQNDNLFGNFKLDFDLDFEVPLIKKSQAKPKSKLPEVQPLGELVSKNSAATEKVNEPPVDQAPNENVPPRRSPTLSPNNRRSMRRSGNVPGSDKLRRHAIRRRSRSCGRQLLPEFEETVNLTRSISSPVNFLPEISSTPCTEKQKEEVAKNTTRVETDKPAEKPMELSQEPEPENPLQTKVTSPARNPILAAEIEQICKERQSSFHKNVLQLDYSGRAPYSRPPTPSSPSVAGLRRTYTMEKGPAPGQLLLSPSHRYDTPSKMPVVKAKRFNQELMVPDTPERQSHDPAWQSEPQPEFVVPETQPQDLGELVQTLSRSAISPIVVINTSNSNRSVRRDAVAMKSVPTSPVTALSSPPIAPSPRRSAAASPQKSIAQLPRVEENMDAIMTDDESDEHPSTVPLNLAPSGGNTTRQRRLRSSNRARATIESQESSMRLLNLHKSVNAKKSKPRKTAIPLNKAPSAPINGEQFARELTRMSNYEILDLRKRNSLNEIYPLNGHRNHRSEKLILEEEIQRELLRRNLMDEAEGLPKQQSSDDSNEDYIPVPPKTQSLRTKSNDRSQGRGRPRSTRRDLPMTTELVNYLGLSQTLETRRKSSKDGKRCLYTKGSSDHEDNDSLSPVKLPRLSKSIQIVPPPPVSLRYSQSLQNLPCSGKFDFDNVVMAAPPDFHDSVNSDAIEIAPPPPEYVVNTRGRSTSGRKSNKNDLVLPPPGYEGGQEEEHDERPSQPRCTAKELQQSTQNGRRAMENELVPPPIEYVEEENRNNEQSRRSTKNGNLVDRNTHNAVEYCEPPEPPEYDDSDHGQASILRRSGKKLQHSKQSVQKSNKEQIIAPSYENNEDYDSDEEPIYNEEYGKEESQNKNVTRRKSDKDEMASHTLECIEGPDPNWNSSCNKQNRNHQNASKSKENDKLANRSSKSQKLSNPRQNAVGTEKSVALSNRGEECTEKSSDVMESLRVNTPTPPIDQNSDDVPSRNPSPSRTLLSDDVPSTSRAALEFLQRSQNMSKSRPPDESSADVVFKKPLAPAPRAKSKKGKSEVDKLKLAKMPVEAEELNTTGIRRSKRGQVPLQMSWCHTMDPSKFNFMSGFIEPRSKNSKTKKGNLSKAKKASATKPKPTVEKNLPDNRGPLCSSTPRISEKLPGAIPHSESLGLSTLTWEETEVQAEAEKVPKKRGRPKKAVGGVQTDTEAEPEPEPEPMISSVAPLTSDQEEPDVPDEQAPYTEAALGPVVFSTPLRDEQEEASTKLMQWLRGVGDAPPSASMSDENASVSSANELIFCQVDGIDYAFYNTKEKAMLGYMRFKPYQKRSMKQAKVHPLKLLVQFGEFNVETLAVGEEKEVHSVLRVGDMIEIDRGTRYSIQNAIDKVSVLMCIRS
The molecule B1 registered a % of cells with recruitment at LacO (without CAL1-V5) in test [1] of 17 % cells. The % of cells with recruitment at LacO (with CAL1-V5) in test [2] was determined as 55 % cells.

B2: dCENP-A-HA, Q9V6Q2 1-225 (natural protein)
chain: MPRHSRAKRAPRPSANNSKSPNDDDTAFRSPEPEDGTDYGLEFTTSQLTLQDNNRRSSTLRRDAGRRQPAARDSSTSGEEEDQENRYPTTRSPQTRRMTVQQESKTRAAGPVAAQNQTRRRKAANPMSRAKRMDREIRRLQHHPGTLIPKLPFSRLVREFIVKYSDDEPLRVTEGALLAMQESCEMYLTQRLADSYMLTKHRNRVTLEVRDMALMAYICDRGRQF
B2: the % of cells with localization at LacO (without CAL1) in test [3] was found to be 43 % cells. The % of cells with localization at LacO (with CAL1-V5) in test [4] is 73 % cells.

B3: recombinant CAL1(1-160), Q9VEN2 1-160 (domain or fragment)
chain: MANAVVDEETLEAMVYERSKAWSSKMADFASLEDGMEIDVAEFDNLFHGEDEDPDLDDVAKEAVEDNVPDEAKLEMGHINATSVTELTLILCANEDNEAKAEIEEILNQTVPVVEEHKRKWREAGLDRILDTFDEKQIEHHVGRWMRRHNSVYLEASPPK
For the molecule B3, in test [5], the stoichiometry N ((dCENP-A/dH4) dimer per CAL1(1-160)) came to 1.
